Patent US20170002079A1

Molecular target: human ST2 on primary human cells (human) (UniProt Q01638)
Assay: cell-based or functional assay

Chain of human ST2 on primary human cells (human) (Q01638 19-556 A78X, form in doubt): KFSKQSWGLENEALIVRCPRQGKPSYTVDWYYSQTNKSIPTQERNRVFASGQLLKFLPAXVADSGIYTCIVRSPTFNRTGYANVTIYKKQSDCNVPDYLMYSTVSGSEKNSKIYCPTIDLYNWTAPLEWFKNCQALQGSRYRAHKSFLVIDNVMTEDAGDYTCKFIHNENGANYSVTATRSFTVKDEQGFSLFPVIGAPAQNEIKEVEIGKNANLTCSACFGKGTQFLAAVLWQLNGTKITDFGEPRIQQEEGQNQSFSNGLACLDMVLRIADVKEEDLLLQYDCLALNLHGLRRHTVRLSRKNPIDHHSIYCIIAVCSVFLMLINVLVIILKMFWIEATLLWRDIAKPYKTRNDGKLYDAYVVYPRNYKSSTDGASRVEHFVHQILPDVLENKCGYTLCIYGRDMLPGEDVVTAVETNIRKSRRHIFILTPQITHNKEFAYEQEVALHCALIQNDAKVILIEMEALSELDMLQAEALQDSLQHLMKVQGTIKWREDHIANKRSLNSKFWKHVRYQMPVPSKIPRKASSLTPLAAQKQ

Substance 97203 (antibody) has an IC50 (ug/ml), inhibition of IL-33-dependent IFN-γ release from human NK cells (IL-33 10 ng/mL and IL-12) of 0.385 µg/mL.
